Reference: IntAct's records for PubMed 21102411

B1: Peroxisomal biogenesis factor 19 (Homo sapiens), P40855 (parent)
chain: MAAAEEGCSVGAEADRELEELLESALDDFDKAKPSPAPPSTTTAPDASGPQKRSPGDTAKDALFASQEKFFQELFDSELASQATAEFEKAMKELAEEEPHLVEQFQKLSEAAGRVGSDMTSQQEFTSCLKETLSGLAKNATDLQNSSMSEEELTKAMEGLGMDEGDGEGNILPIMQSIMQNLLSKDVLYPSLKEITEKYPEWLQSHRESLPPEQFEKYQEQHSVMCKICEQFEAETPTDSETTQKARFEMVLDLMQQLQDLGHPPKELAGEMPPGLNFDLDALNLSGPPGASGEQCLIM
partner: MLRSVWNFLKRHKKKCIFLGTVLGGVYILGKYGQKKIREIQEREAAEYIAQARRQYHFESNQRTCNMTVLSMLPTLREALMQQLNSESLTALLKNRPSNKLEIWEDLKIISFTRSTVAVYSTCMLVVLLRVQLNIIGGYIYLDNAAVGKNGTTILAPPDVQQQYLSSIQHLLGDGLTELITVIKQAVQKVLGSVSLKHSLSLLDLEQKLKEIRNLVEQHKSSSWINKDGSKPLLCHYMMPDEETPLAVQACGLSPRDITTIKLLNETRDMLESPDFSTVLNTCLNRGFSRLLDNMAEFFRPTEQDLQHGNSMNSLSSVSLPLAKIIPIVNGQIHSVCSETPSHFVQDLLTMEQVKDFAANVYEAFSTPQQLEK
B2: Peroxisomal biogenesis factor 19 (Homo sapiens), P40855 (parent)
chain: B1 chain
partner: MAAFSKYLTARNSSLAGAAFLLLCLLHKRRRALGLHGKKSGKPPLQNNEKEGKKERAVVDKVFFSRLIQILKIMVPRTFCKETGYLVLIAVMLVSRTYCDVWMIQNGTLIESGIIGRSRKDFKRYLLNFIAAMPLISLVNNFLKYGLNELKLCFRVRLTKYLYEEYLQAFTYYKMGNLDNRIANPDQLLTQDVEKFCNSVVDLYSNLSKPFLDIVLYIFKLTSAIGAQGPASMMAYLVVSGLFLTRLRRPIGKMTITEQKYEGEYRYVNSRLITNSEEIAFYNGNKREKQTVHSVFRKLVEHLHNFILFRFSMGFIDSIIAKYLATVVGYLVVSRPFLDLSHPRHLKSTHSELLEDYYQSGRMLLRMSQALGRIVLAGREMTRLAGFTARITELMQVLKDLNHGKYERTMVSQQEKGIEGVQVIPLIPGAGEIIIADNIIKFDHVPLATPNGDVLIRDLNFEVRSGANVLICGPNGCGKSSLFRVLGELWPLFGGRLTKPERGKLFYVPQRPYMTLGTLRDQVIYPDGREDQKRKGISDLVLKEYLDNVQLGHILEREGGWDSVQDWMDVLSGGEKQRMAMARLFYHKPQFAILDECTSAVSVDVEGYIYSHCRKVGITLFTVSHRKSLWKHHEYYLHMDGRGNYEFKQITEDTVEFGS

Variants of: B1
Conditions: with pex3_human PEX3, P56589

effect of a mutation on the interaction | Variant
decreasing interaction | L26A

Variants of: B1
Conditions: with pex3_human PEX3, P56589
Remark: another data set of the same source

effect of a mutation on the interaction | Variant
disrupting interaction | L21A

Variants of: B1
Conditions: with pex3_human PEX3, P56589
Remark: another data set of the same source

effect of a mutation on the interaction | Variant
decreasing interaction | L21A

Variants of: B1
Conditions: with pex3_human PEX3, P56589
Remark: another data set of the same source

effect of a mutation on the interaction | Variant
disrupting interaction | L22A

Variants of: B1
Conditions: with pex3_human PEX3, P56589
Remark: another data set of the same source

effect of a mutation on the interaction | Variant
disrupting interaction | F29A

Variants of: B1
Conditions: with pex3_human PEX3, P56589
Remark: another data set of the same source

effect of a mutation on the interaction | Variant
disrupting interaction | L18A

Variants of: B1
Conditions: with pex3_human PEX3, P56589
Remark: another data set of the same source

effect of a mutation on the interaction | Variant
decreasing interaction | L18A

Variants of: B1
Conditions: with pex3_human PEX3, P56589
Remark: another data set of the same source

effect of a mutation on the interaction | Variant
decreasing interaction | D28A

Variants of: B2
Conditions: with abcd3_human ABCD3, P28288

effect of a mutation on the interaction | Variant
disrupting interaction | F29A

Variants of: B2
Conditions: with abcd3_human ABCD3, P28288
Remark: another data set of the same source

effect of a mutation on the interaction | Variant
disrupting interaction | L22A
